Results published in doi:10.1101/2024.07.10.602929.

Columns and labels:
Experiment in all cases: biolayer interferometry, immobilised biotin-peptide
GABARAP = GABARAP (UniProt O95166); conditions: reference: unphosphorylated LIR1 peptide
GABARAPL1 = GABARAPL1 (UniProt Q9H0R8); conditions: reference: unphosphorylated LIR1 peptide; sites Y1092
GABARAPL2 = GABARAPL2 (UniProt P60520); conditions: reference: unphosphorylated LIR1 peptide; sites Y1092
LC3A = LC3A (UniProt Q9H492); conditions: reference: unphosphorylated LIR1 peptide; sites Y1092
LC3B = LC3B (UniProt Q9GZQ8); conditions: reference: unphosphorylated LIR1 peptide; sites Y1092

## EGFR LIR1, 1076-1099 (from UniProt P00533) pS1081 LIR1 peptide
GABARAP; sites S1081
  fold change: stronger

## EGFR LIR1, 1076-1099 (from UniProt P00533) pS1081/pT1085 LIR1 peptide
GABARAP; sites S1081,T1085
  fold change: stronger

## EGFR LIR1, 1076-1099 (from UniProt P00533) pT1085 LIR1 peptide
GABARAP; sites T1085
  fold change: stronger

## EGFR LIR1, 1076-1099 (from UniProt P00533) pY1092 LIR1 peptide
GABARAP; sites Y1092
  binding against the reference: same
GABARAPL1
  binding against the reference: same
GABARAPL2
  binding against the reference: same
LC3A
  binding against the reference: same
LC3B
  binding against the reference: same
